The values that follow come from the RNAGym collection of RNA variant scans (doi:10.1093/molbev/msab373).

B1: Azoarcus group I ribozyme (parent)
chain: GUGCCUUGCGCCGGGAAACCACGCAAGGGAUGGUGUCAAAUUCGGCGAAACCUAAGCGCCCGCCCGGGCGUAUGGCAACGCCGAGCCAAGCUUCGGCGCCUGCGCCGAUGAAGGUGUAGAGACUAGACGGCACCCACCUAAGGCAAACGCUAUGGUGAAGGCAUAGUCCAGGGAGUGGCGAAAGUCACACAAACCGG

In this data set the parent is B1. Kind of data set: reverse-splicing fitness (ratio to wild type); higher = more active; in vitro selection; Mg2+ level not given. The method, boiled down:
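An in vitro group I ribozyme library with randomized positions was T7-transcribed and gel-purified. In triplicate, 10 pmol RNA in EPPS pH 7.5 was reacted with 50 pmoles of a 30-nt RNA substrate for 1 h at 37 °C across several added MgCl2 levels (1–48 mM), then stopped with EDTA. Products were reverse transcribed from a substrate-complementary primer, PCR-amplified and sequenced (HiSeq 4000). Fitness is a variant's read proportion after selection over that before, normalised to wild type.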
As to A120G A145C C150A U176G, the reverse-splicing fitness was determined as 0.00611. Next, C82U A111G A145U C150G C169A U176A: 0.00927; A111G A120U A145U C150U C169G U176A: 0.00842. In the case of C82A A120U A145U U176A, the reverse-splicing fitness is 0.036.

On to C82G A145G C150A C169U U176C, for which the reverse-splicing fitness is 0.0141.

As for C82U A111C A145U C169U U176C, the reverse-splicing fitness was 0.0143. On to C82U A111C A120U A145C C150U U176A, for which the reverse-splicing fitness is 0.00424. Next, C82A A111U A120U A145U C150G C169U U176G: 0.0027.

Turning to C82G A111U A120U A145G C150G C169U U176A, the reverse-splicing fitness is 0.0076.

For A111U A120G A145U C169A, the reverse-splicing fitness was determined as 0.117. Next, C82U A111C A120C A145G C169A U176G: 0.00658; C82U A120G A145C C150U C169G U176A: 0.0197; C82U A111C A120U A145U C150U C169U: 0.0037. Next, A111U A120C A145U: 0.596; C82A A145C C169G: 0.0105. The same measure for A111G A120G A145C C150A C169U U176C: 0.0129; for C82U A111C A120G C169G U176C: 0.0209. Turning to C82U A120U C169G U176G, the reverse-splicing fitness came out at 0.0015. Take C82U A111U A120U A145U C150G C169G U176A: the reverse-splicing fitness stood at 0.0029.

Take A111G A120U C150G C169G U176G: the reverse-splicing fitness stood at 0.00237.

Consider A111U A120U A145U U176C, for which the reverse-splicing fitness was found to be 0.281. The same measure for A120U A145U C150A: 0.215. The same measure for C82G A111U A145C C150A U176A: 0.0163.

On to C82A A120U A145C C150G C169A U176A, for which the reverse-splicing fitness is 0.00254.

Regarding A111U A120G A145G C169G U176G, the reverse-splicing fitness came to 0.00492. Next, C82A A111C A120C C150U C169U U176G: 0.0075; C82A A145U C150G C169G U176C: 0.00607; C82U A111U A120G A145G C169A U176G: 0.00433. Regarding C82A A111U A145U C150A C169A U176C, the reverse-splicing fitness turned out to be 0.0138. Next, A111C A120U A145U: 0.629. The same measure for C82G A111U C150U U176C: 0.131. For the variant C82U A111U C150U C169G U176C, the reverse-splicing fitness turned out to be 0.0162. Next, C82A A111C A120C A145C C150U C169A U176G: 0.00751; A111U A145C C169U: 0.108. Next, C82G A111G A145C C169U: 0.0132. The same measure for C82U A111G A120C A145C C150U U176G: 0.00465; for A145C C150U C169A U176G: 0.00607; for C82U A120U A145U C150A U176C: 0.0101. As for C82G A111G A120U C150G C169U, the reverse-splicing fitness amounted to 0.0064. Next, C82U A111G A120C A145G C150U C169G U176G: 0.00507; A120C U176C: 0.714. Next, C82G A111U A120G A145U C150G C169G: 0.00774; C82U A145G C169G: 0.0106; C82A A111G A120U A145G C169G U176A: 0.00375. Turning to C82A A111G A120G A145C C150G U176A, the reverse-splicing fitness was determined as 0.0058. The same measure for A120C A145U C169A U176C: 0.0127. The same measure for C82A A111U A145U C169A U176C: 0.0114; for C82U A111C A120C C150A C169U U176C: 0.0181.

Consider C82G A111G A120G C150A C169G, for which the reverse-splicing fitness was found to be 0.0105. The same measure for A111U A120C A145G C150A C169G U176C: 0.0246; for C82G A111G A120U A145G C150G U176A: 0.00561.

For the variant C82G A111U A120G A145C C150U C169A U176A, the reverse-splicing fitness came to 0.0138. Next, C82A A111U A120U A145G C150A C169U U176G: 0.00326; A111G A120U A145G C150A C169G: 0.0141; A111U A120U A145G C169A U176C: 0.00376. Next, C82U A120C C150G C169G: 0.00683; A111U A120U A145C C150A C169U U176A: 0.00285. The same measure for C82A A111G A120G A145G C169U U176G: 0.00492; for C82U A120G A145C C150G: 0.00804; for C82G A111C A120G A145G C150G C169A U176C: 0.0135. As for A120G A145G C169G U176C, the reverse-splicing fitness stood at 0.268. For the variant C82G A120U A145G C150G U176G, the reverse-splicing fitness is 0.0041. The same measure for C82A A111C A120U A145U C150G C169U U176G: 0.0029; for C82A A111G A120C A145C C150U C169A U176G: 0.00704.

For the variant C82A A111G A120U A145C U176A, the reverse-splicing fitness turned out to be 0.00841. The same measure for C82U A111U A120G A145G C169U U176G: 0.00458; for A111C A120C A145G C169U U176A: 0.033.

As to C82A A111U A120G A145C C169U U176G, the reverse-splicing fitness worked out at 0.00478. The same measure for C82G A145G C150A C169U: 0.0106. Consider C82U A120U A145G U176C, for which the reverse-splicing fitness turned out to be 0.076. The same measure for A111G C150U C169U U176A: 0.0336; for C82A A111G A120G C150U U176G: 0.00781. The same measure for C82U A111G A120G C150U U176G: 0.00506. Next, C82U A111G A120G A145U C150U C169U: 0.00963; C82G A111G A145U C150A: 0.0314. In the case of C82A A111C A145G C150U C169G U176G, the reverse-splicing fitness was 0.00687. The same measure for C82A A120C A145C C169A U176G: 0.00403. For C82G A111U A120C A145C C150U C169A, the reverse-splicing fitness is 0.00911. Next, A111C A120U A145C C150A C169U: 0.00533. Next, A111C A120U A145C C150A C169A: 0.00208; C82G A111U A120G A145C C150A U176C: 0.0103; A111C A120U A145U C150G C169U: 0.00794.

As for C82A A111C A145U C150U C169U, the reverse-splicing fitness turned out to be 0.0128.

For the variant C82U A111C A120U A145C C169U U176G, the reverse-splicing fitness came to 0.00205.
